Test results from PMC3794157, “Structure of the Fibrillin-1 N-Terminal Domains Suggests that Heparan Sulfate Regulates the Early Stages of Microfibril Assembly” (Structure(London, England:1993), 2013).

Assays:
Experiment in all cases: pull-down; biotinylated cbEGF41-43 or control cbEGF32-34 immobilised on M270 streptavidin-coated magnetic beads; 15 ug His-tagged protein in 50 mM Tris-HCl pH 7.4, 150 mM NaCl, 2 mM CaCl2, 0.05% Tween-20, 1% BSA for 1 hr; western blot with anti-RGS-His-HRP
Conditions in all cases: both partners purified
[1] = target: T1, FUN-EGF3 mutant lacking the 63Y-N-A-Y66 motif in the FUN domain (human, UniProt P35555 45-178, 63Y-N-A-Y66 deleted)
T1 construct: human fibrillin-1 FUN-EGF3, residues R45-E178, with 63Y-N-A-Y66 deleted; also called YNAY FUN-EGF3

FUN-EGF3 (G5) mutant = target: T2, FUN-EGF3 (G5) mutant (human, UniProt P35555 45-178, 113S-R-S-I-Q117 replaced with five glycines)
T2 construct: human fibrillin-1 FUN-EGF3, residues R45-E178, with 113S-R-S-I-Q117 of the EGF1-EGF2 linker replaced with five glycines; also called G5 FUN-EGF3

S88A FUN-EGF3 = target: T3, S88A FUN-EGF3 (human, UniProt P35555 45-178, S88A)
T3 construct: human fibrillin-1 FUN-EGF3, residues R45-E178, with S88 substituted with alanine

R62A FUN-EGF3 = target: T4, R62A FUN-EGF3 (human, UniProt P35555 45-178, R62A)
T4 construct: human fibrillin-1 FUN-EGF3, residues R45-E178, with R62A

[2] = target: T5, human fibrillin-1 FUN-EGF3 fragment (residues R45-E178) (human, UniProt P35555 45-178)
T5 construct: human fibrillin-1, fibrillin unique N-terminal (FUN) domain and EGF1-EGF3, residues R45-E178; The vector pQE-30 is named; also called wild-type (WT) FUN-EGF3; fibrillin N-terminal fragment

Measured: binding result

T5 sequence (P35555 45-178): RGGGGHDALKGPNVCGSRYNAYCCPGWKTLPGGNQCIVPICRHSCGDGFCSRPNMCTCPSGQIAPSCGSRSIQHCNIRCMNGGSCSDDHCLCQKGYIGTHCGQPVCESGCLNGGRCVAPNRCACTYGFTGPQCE
T4 sequence (P35555 45-178 R62A): as the sequence (P35555 45-178) above, with R18A counted along it
T1 sequence (P35555 other isoform, or with tags, fused parts or gaps 63Y-N-A-Y66 deleted | 63Y-N-A-Y66 deleted | mutant): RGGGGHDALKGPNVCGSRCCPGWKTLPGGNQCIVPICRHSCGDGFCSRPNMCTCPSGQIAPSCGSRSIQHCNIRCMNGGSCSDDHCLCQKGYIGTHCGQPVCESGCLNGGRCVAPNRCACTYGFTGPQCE
T2 sequence (P35555 other isoform, or with tags, fused parts or gaps with the stated changes): as the sequence (P35555 45-178) above, with S69G, R70G, S71G, I72G, Q73G counted along it
T3 sequence (P35555 45-178 S88A): as the sequence (P35555 45-178) above, with S44A counted along it

B1: human fibrillin-1 cbEGF41-43 fragment (residues D2567-V2687), biotinylated, C-terminal BirA tag (domain or fragment)
chain: not shown
modifications: biotin, site-specific, on the BirA tag
notes: Held on streptavidin-coated magnetic beads by its biotin; also called fibrillin C-terminal fragment; not shown: BirA tag, C-terminal, kept
binds: all assays above
